Data: patent US20170369523A1, “TEMPLATE-FIXED BETA-HAIRPIN PEPTIDOMIMETICS THAT ARE LIGANDS FOR G-PROTEIN-COUPLED RECEPTORS (GPCRS) AND ARE MODULATORS OF TRANSCRIPTION FACTORS AND COACTIVATORS” (POLYPHOR AG, priority 2008, published 2017)
Numbered stars: 1 amine (or outer) side, 2 acyl side, 3 side chain; on linkers, the order of the positions; unused ones are H or OH. Square brackets hold non-standard residues; d marks the D form. Glu(cHx) = L-glutamic acid cyclohexyl ester, O=C(CC[C@H](N[*:1])C(=O)[*:2])OC1CCCCC1; Hyp = O=C(O)[C@@H]1C[C@@H](O)CN1

T1: NCoA-1 (UniProt Q15788 257-385, limits assumed)
T1 construct: also called SRC-1
T1 sequence (looked up): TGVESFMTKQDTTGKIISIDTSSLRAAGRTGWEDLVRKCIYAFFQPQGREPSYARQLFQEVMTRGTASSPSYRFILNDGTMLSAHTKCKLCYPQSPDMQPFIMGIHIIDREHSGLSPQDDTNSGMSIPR

B1: Ex. 2 (peptide)
peptide: cyclo(FEWLAWEF[dP][Hyp])
SMILES: CC(C)C[C@@H]1NC(=O)[C@H](Cc2c[nH]c3ccccc23)NC(=O)[C@H](CCC(=O)O)NC(=O)[C@H](Cc2ccccc2)NC(=O)[C@@H]2C[C@@H](O)CN2C(=O)[C@H]2CCCN2C(=O)[C@H](Cc2ccccc2)NC(=O)[C@H](CCC(=O)O)NC(=O)[C@H](Cc2c[nH]c3ccccc23)NC(=O)[C@H](C)NC1=O
notes: cyclo(-P1..P8-template-)
B2: Ex. 19 (peptide)
peptide: cyclo(FEWLDWEF[dP]P)
SMILES: CC(C)C[C@@H]1NC(=O)[C@H](Cc2c[nH]c3ccccc23)NC(=O)[C@H](CCC(=O)O)NC(=O)[C@H](Cc2ccccc2)NC(=O)[C@@H]2CCCN2C(=O)[C@H]2CCCN2C(=O)[C@H](Cc2ccccc2)NC(=O)[C@H](CCC(=O)O)NC(=O)[C@H](Cc2c[nH]c3ccccc23)NC(=O)[C@H](CC(=O)O)NC1=O
notes: cyclo(-P1..P8-template-)
B3: Ex. 27 (peptide)
peptide: cyclo(MEWLDWEF[dP]P)
SMILES: CSCC[C@@H]1NC(=O)[C@@H]2CCCN2C(=O)[C@H]2CCCN2C(=O)[C@H](Cc2ccccc2)NC(=O)[C@H](CCC(=O)O)NC(=O)[C@H](Cc2c[nH]c3ccccc23)NC(=O)[C@H](CC(=O)O)NC(=O)[C@H](CC(C)C)NC(=O)[C@H](Cc2c[nH]c3ccccc23)NC(=O)[C@H](CCC(=O)O)NC1=O
notes: cyclo(-P1..P8-template-)
B4: Ex. 8 (peptide)
peptide: cyclo(FEWLGWEF[dP]P)
SMILES: CC(C)C[C@@H]1NC(=O)[C@H](Cc2c[nH]c3ccccc23)NC(=O)[C@H](CCC(=O)O)NC(=O)[C@H](Cc2ccccc2)NC(=O)[C@@H]2CCCN2C(=O)[C@H]2CCCN2C(=O)[C@H](Cc2ccccc2)NC(=O)[C@H](CCC(=O)O)NC(=O)[C@H](Cc2c[nH]c3ccccc23)NC(=O)CNC1=O
notes: cyclo(-P1..P8-template-)
B5: Ex. 12 (peptide)
peptide: cyclo(FEWLYWEF[dP]P)
SMILES: CC(C)C[C@@H]1NC(=O)[C@H](Cc2c[nH]c3ccccc23)NC(=O)[C@H](CCC(=O)O)NC(=O)[C@H](Cc2ccccc2)NC(=O)[C@@H]2CCCN2C(=O)[C@H]2CCCN2C(=O)[C@H](Cc2ccccc2)NC(=O)[C@H](CCC(=O)O)NC(=O)[C@H](Cc2c[nH]c3ccccc23)NC(=O)[C@H](Cc2ccc(O)cc2)NC1=O
notes: cyclo(-P1..P8-template-)
B6: Ex. 7 (peptide)
peptide: cyclo(FEWGAWEF[dP]P)
SMILES: C[C@@H]1NC(=O)CNC(=O)[C@H](Cc2c[nH]c3ccccc23)NC(=O)[C@H](CCC(=O)O)NC(=O)[C@H](Cc2ccccc2)NC(=O)[C@@H]2CCCN2C(=O)[C@H]2CCCN2C(=O)[C@H](Cc2ccccc2)NC(=O)[C@H](CCC(=O)O)NC(=O)[C@H](Cc2c[nH]c3ccccc23)NC1=O
notes: cyclo(-P1..P8-template-)
B7: Ex. 24 (peptide)
peptide: cyclo(FEWLAWLF[dP]P)
SMILES: CC(C)C[C@@H]1NC(=O)[C@H](Cc2c[nH]c3ccccc23)NC(=O)[C@H](CCC(=O)O)NC(=O)[C@H](Cc2ccccc2)NC(=O)[C@@H]2CCCN2C(=O)[C@H]2CCCN2C(=O)[C@H](Cc2ccccc2)NC(=O)[C@H](CC(C)C)NC(=O)[C@H](Cc2c[nH]c3ccccc23)NC(=O)[C@H](C)NC1=O
notes: cyclo(-P1..P8-template-)
B8: Ex. 20 (peptide)
peptide: cyclo(FEWLAWEE[dP]P)
SMILES: CC(C)C[C@@H]1NC(=O)[C@H](Cc2c[nH]c3ccccc23)NC(=O)[C@H](CCC(=O)O)NC(=O)[C@H](Cc2ccccc2)NC(=O)[C@@H]2CCCN2C(=O)[C@H]2CCCN2C(=O)[C@H](CCC(=O)O)NC(=O)[C@H](CCC(=O)O)NC(=O)[C@H](Cc2c[nH]c3ccccc23)NC(=O)[C@H](C)NC1=O
notes: cyclo(-P1..P8-template-)
B9: Ex. 21 (peptide)
peptide: cyclo(FEWLAWYF[dP]P)
SMILES: CC(C)C[C@@H]1NC(=O)[C@H](Cc2c[nH]c3ccccc23)NC(=O)[C@H](CCC(=O)O)NC(=O)[C@H](Cc2ccccc2)NC(=O)[C@@H]2CCCN2C(=O)[C@H]2CCCN2C(=O)[C@H](Cc2ccccc2)NC(=O)[C@H](Cc2ccc(O)cc2)NC(=O)[C@H](Cc2c[nH]c3ccccc23)NC(=O)[C@H](C)NC1=O
notes: cyclo(-P1..P8-template-)
B10: Ex. 11 (peptide)
peptide: cyclo(FEWYAWEF[dP]P)
SMILES: C[C@@H]1NC(=O)[C@H](Cc2ccc(O)cc2)NC(=O)[C@H](Cc2c[nH]c3ccccc23)NC(=O)[C@H](CCC(=O)O)NC(=O)[C@H](Cc2ccccc2)NC(=O)[C@@H]2CCCN2C(=O)[C@H]2CCCN2C(=O)[C@H](Cc2ccccc2)NC(=O)[C@H](CCC(=O)O)NC(=O)[C@H](Cc2c[nH]c3ccccc23)NC1=O
notes: cyclo(-P1..P8-template-)
B11: Ex. 16 (peptide)
peptide: cyclo(FEWLDWEM[dP]P)
SMILES: CSCC[C@@H]1NC(=O)[C@H](CCC(=O)O)NC(=O)[C@H](Cc2c[nH]c3ccccc23)NC(=O)[C@H](CC(=O)O)NC(=O)[C@H](CC(C)C)NC(=O)[C@H](Cc2c[nH]c3ccccc23)NC(=O)[C@H](CCC(=O)O)NC(=O)[C@H](Cc2ccccc2)NC(=O)[C@@H]2CCCN2C(=O)[C@H]2CCCN2C1=O
notes: cyclo(-P1..P8-template-)
B12: Ex. 22 (peptide)
peptide: cyclo(FLWLAWEF[dP]P)
SMILES: CC(C)C[C@@H]1NC(=O)[C@H](Cc2c[nH]c3ccccc23)NC(=O)[C@H](CC(C)C)NC(=O)[C@H](Cc2ccccc2)NC(=O)[C@@H]2CCCN2C(=O)[C@H]2CCCN2C(=O)[C@H](Cc2ccccc2)NC(=O)[C@H](CCC(=O)O)NC(=O)[C@H](Cc2c[nH]c3ccccc23)NC(=O)[C@H](C)NC1=O
notes: cyclo(-P1..P8-template-)
B13: Ex. 23 (peptide)
peptide: cyclo(EEWLAWEF[dP]P)
SMILES: CC(C)C[C@@H]1NC(=O)[C@H](Cc2c[nH]c3ccccc23)NC(=O)[C@H](CCC(=O)O)NC(=O)[C@H](CCC(=O)O)NC(=O)[C@@H]2CCCN2C(=O)[C@H]2CCCN2C(=O)[C@H](Cc2ccccc2)NC(=O)[C@H](CCC(=O)O)NC(=O)[C@H](Cc2c[nH]c3ccccc23)NC(=O)[C@H](C)NC1=O
notes: cyclo(-P1..P8-template-)
B14: Ex. 17 (peptide)
peptide: cyclo(FEALDWEF[dP]P)
SMILES: CC(C)C[C@@H]1NC(=O)[C@H](C)NC(=O)[C@H](CCC(=O)O)NC(=O)[C@H](Cc2ccccc2)NC(=O)[C@@H]2CCCN2C(=O)[C@H]2CCCN2C(=O)[C@H](Cc2ccccc2)NC(=O)[C@H](CCC(=O)O)NC(=O)[C@H](Cc2c[nH]c3ccccc23)NC(=O)[C@H](CC(=O)O)NC1=O
notes: cyclo(-P1..P8-template-)
B15: Ex. 9 (peptide)
peptide: cyclo(FEWLAWE[Glu(cHx)][dP]P)
SMILES: CC(C)C[C@@H]1NC(=O)[C@H](Cc2c[nH]c3ccccc23)NC(=O)[C@H](CCC(=O)O)NC(=O)[C@H](Cc2ccccc2)NC(=O)[C@@H]2CCCN2C(=O)[C@H]2CCCN2C(=O)[C@H](CCC(=O)OC2CCCCC2)NC(=O)[C@H](CCC(=O)O)NC(=O)[C@H](Cc2c[nH]c3ccccc23)NC(=O)[C@H](C)NC1=O
notes: cyclo(-P1..P8-template-)

The binders below were run against T1, NCoA-1 (assay: competition fluorescence polarization; displacement of FluoSTAT6 from NCoA-1).
Procedure: The mixtures were shaken thoroughly. Fluorescence polarization was measured on a SPECTRAmax M5 spectrometer (Molecular device) following 5-30 min incubation at room temperature. FluoSTAT6 was excited at 490 nm and emission polarization was detected at 525 nm. 40 intensity measurements were collected for each well, 20 at horizontal position of the dynamic polarizer, 20 at parallel position. As the fraction of FluoSTAT6 bound to NCoA-1 is correlated to the fluorescence polarization (FP), after normalization, the fraction of bound FluoSTAT6 (B) was determined, and the KD was calculated according to B=[(1+P/R+KD/R)−((1+P/R+KD/R)²−4P/R)^{0.5}]/2, wherein P is the total probe concentration, R the total protein concentration and KD the dissociation constant (M. H. Roehrl, J. Y. Wang, G. Wagner, Biochemistry 2004, 3, 16056).
To determine the Kᵢ values of potential inhibitors of the STAT6/NCoA-1 interaction (competition fluorescence polarization) the compounds (dilution series from 0 to 100 μM final concentration) dissolved in HEPES buffer (10 mM HEPES, 150 mM NaCl, 3.4 mM EDTA, 0.1% BSA) were dispensed in a black 96 well plate (Greiner) and FluoSTAT6 (200 nM final concentration) in HEPES buffer was added. The mixture was completed by a HEPES buffer solution of NCoA-1 (1 μM final concentration) and processed as described above. STAT6Y (C-terminal tyrosine extended STAT6 794-814 peptide) was used as a positive control. As the total fluorescence intensity of FluoSTAT6 remains similar for all samples, the fraction of peptide bound to NCoA-1 is correlated to the fluorescence polarization.
Following normalization data were fitted with IGORpro Software® (WaveMetrics, Lake Oswego, Oreg., USA) to a sigmoid equation to determine IC₅₀ values.

| Binder | Ki |
| --- | --- |
| B1 | 4.7 µM |
| B2 | 3.7 µM |
| B3 | 7.9 µM |
| B4 | 3 µM |
| B5 | 9.3 µM |
| B6 | 7.1 µM |
| B7 | 24.3 µM |
| B8 | 11.5 µM |
| B9 | 19.6 µM |
| B10 | 8.7 µM |
| B11 | 6.6 µM |
| B12 | 8.9 µM |
| B13 | 16.4 µM |
| B14 | 15.8 µM |
| B15 | 1.5 µM |
